Drawing on publication PMC8379176 (Nature Communications, 2021), this text covers Cell-surface expression for four molecules.

The data set deals with ghrelin receptor (WT or mutants). The experiment in a line: Cell-surface expression assay (FACS). It is filed as cell-based, human. The procedure: Cell-surface expression for each mutant was monitored by a fluorescence-activated cell sorting (FACS) assay. In brief, the expressed cells were incubated with mouse anti-HA-FITC antibody (Sigma) at a dilution of 1:200 for 20 min at 4 °C, and then a 9-fold excess of PBS was added to cells. […] The FACS data were analyzed by BD Accuri C6 software 1.0.264.21. The gating strategy and calculation method of expression are shown in Supplementary Fig. 11.
Supplementary Figure 11 | Gating strategy of cell surface expression assay. Circle a gate P1 in the scatter map (black circle). The cells shown in the histogram map are all the cells in the gate P1 in the scatter map. Fluorescence signal intensity (FITC) is presented by […]. With the Blank sample as the reference value of background fluorescence signal (a), the fluorescence signal histogram map is divided into two regions. The left region represents the negative cell community (FITC-), while the right region represents the positive cell community (FITC+). The expression level of cell surface wild-type (WT) ghrelin receptor (b) can be calculated as follows:
(M(FITC+)-M(FITC-))×(FITC+% Parent). M, mean fluorescence intensity. The expression level of the ghrelin receptor mutant is calculated similarly to WT receptor and then is normalized with the WT to calculate the relative expression value. […]

B1: E197ECL2A (protein)
chain: MWNATPSEEPGFNLTLADLDWDASPGNDSLGDELLQLFPAPLLAGVTATCVALFVVGIAGNLLTMLVVSRFRELRTTTNLYLSSMAFSDLLIFLCMPLDLVRLWQYRPWNFGDLLCKLFQFVSESCTYATVLTITALSVERYFAICFPLRAKVVVTKGRVKLVIFVIWAVAFCSAGPIFVLVGVEHENGTDPWDTNACRPTEFAVRSGLLTVMVWVSSIFFFLPVFCLTVLYSLIGRKLWRRRRGDAVVGASLRDQNHKQTVKMLAVVVFAFILCWLPFHVGRYLFSKSFEPGSLEIAQISQYCNLVSFVLFYLSAAINPILYNIMSKKYRVAVFRLLGFEPFSQRKLSTLKDESSRAWTESSINT
modifications: SNAP tag labelled with SNAP-Lumi4-Tb; left off: SNAP, N-terminal, kept
With B1, the Cell-surface expression is, setting by setting: (replicate 1) 101.89%; (replicate 2) 100.72%; (replicate 3) 102.63%; (replicate 4) 110.56%; (replicate 5) 103.22%.

B2: F2866.58A (protein)
chain: MWNATPSEEPGFNLTLADLDWDASPGNDSLGDELLQLFPAPLLAGVTATCVALFVVGIAGNLLTMLVVSRFRELRTTTNLYLSSMAFSDLLIFLCMPLDLVRLWQYRPWNFGDLLCKLFQFVSESCTYATVLTITALSVERYFAICFPLRAKVVVTKGRVKLVIFVIWAVAFCSAGPIFVLVGVEHENGTDPWDTNECRPTEFAVRSGLLTVMVWVSSIFFFLPVFCLTVLYSLIGRKLWRRRRGDAVVGASLRDQNHKQTVKMLAVVVFAFILCWLPFHVGRYLASKSFEPGSLEIAQISQYCNLVSFVLFYLSAAINPILYNIMSKKYRVAVFRLLGFEPFSQRKLSTLKDESSRAWTESSINT
modifications: SNAP tag labelled with SNAP-Lumi4-Tb; left off: SNAP, N-terminal, kept
In the case of B2, the Cell-surface expression is, setting by setting: (replicate 1) 90.14%; (replicate 2) 93.12%; (replicate 3) 89.15%; (replicate 4) 93.89%; (replicate 5) 90.00%.

B3: R2836.55A (protein)
chain: MWNATPSEEPGFNLTLADLDWDASPGNDSLGDELLQLFPAPLLAGVTATCVALFVVGIAGNLLTMLVVSRFRELRTTTNLYLSSMAFSDLLIFLCMPLDLVRLWQYRPWNFGDLLCKLFQFVSESCTYATVLTITALSVERYFAICFPLRAKVVVTKGRVKLVIFVIWAVAFCSAGPIFVLVGVEHENGTDPWDTNECRPTEFAVRSGLLTVMVWVSSIFFFLPVFCLTVLYSLIGRKLWRRRRGDAVVGASLRDQNHKQTVKMLAVVVFAFILCWLPFHVGAYLFSKSFEPGSLEIAQISQYCNLVSFVLFYLSAAINPILYNIMSKKYRVAVFRLLGFEPFSQRKLSTLKDESSRAWTESSINT
modifications: SNAP tag labelled with SNAP-Lumi4-Tb; left off: SNAP, N-terminal, kept
With B3, the Cell-surface expression is given as 56.22% (replicate 1); 65.89% (replicate 2); 64.91% (replicate 3); 66.07% (replicate 4); 63.09% (replicate 5).

B4: F2796.51A (protein)
chain: MWNATPSEEPGFNLTLADLDWDASPGNDSLGDELLQLFPAPLLAGVTATCVALFVVGIAGNLLTMLVVSRFRELRTTTNLYLSSMAFSDLLIFLCMPLDLVRLWQYRPWNFGDLLCKLFQFVSESCTYATVLTITALSVERYFAICFPLRAKVVVTKGRVKLVIFVIWAVAFCSAGPIFVLVGVEHENGTDPWDTNECRPTEFAVRSGLLTVMVWVSSIFFFLPVFCLTVLYSLIGRKLWRRRRGDAVVGASLRDQNHKQTVKMLAVVVFAFILCWLPAHVGRYLFSKSFEPGSLEIAQISQYCNLVSFVLFYLSAAINPILYNIMSKKYRVAVFRLLGFEPFSQRKLSTLKDESSRAWTESSINT
modifications: SNAP tag labelled with SNAP-Lumi4-Tb; left off: SNAP, N-terminal, kept
For the molecule B4, the Cell-surface expression runs as follows: (replicate 1) 103.70%; (replicate 2) 100.07%; (replicate 3) 101.03%; (replicate 4) 106.36%; (replicate 5) 95.20%.
